Substrate: C[C@@H](O)[C@H](N)C(=O)O
Experiment: purified protein
Settings: natural substrate

B1: NmLTA (Neptunomonas marina) (protein)
chain: MASNDSCIEDTVSFTSDNIAAAAPEIVQAMAQACQGNAQPYGGDALTQNVEAQLKAIFECDLQLFLVPTGSAANAISLAALTPPWGAILCHQESHINNDECGAPEFFTAGAKLIAVAGTHGKLDPQALTQAARNKRGDVHSVEPTTVSITQATEVGSIYALDELNEIGQICRNEGLKLHMDGARFANALSALGCTPAEMTWKAGVDVLSFGATKNGSLCAEAIILFDKSYAQEIAFRRKRGGHLLSKMRFLSAQMHAYLADDLWLTNARHANLMAARLAAGLSALSRVSLIAPTESNIIFCRMPTKMIAALQQQGFQFYHDRWGDGIVRLVTSFATTQAQVDTFIAAAAQLNQNTD
  Km: 12.3 mM
  kcat: 805.7 s⁻¹

Reference: publication doi:10.1101/2023.04.09.536162v1
